Test results: patent publication US20190241648A1 (STATEN BIOTECHNOLOGY B V, published 2019)
Ends that are not written are not given here.

Columns and labels:
Test in all cases: peptide microarray
ApoC3 peptide … S48D = molecular target: T1, ApoC3 peptide … S48D (human, not fully specified; cyclic constrained)
T1 peptide: ARGWVTDGFDSLK
Method in brief: (§1)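 Peptide microarrays of ApoC3-derived peptides incubated with antibody samples, then stained with goat anti-human IgG (Fc) DyLight680 (1:5000) and anti-HA DyLight800 (1:2000) control. Read-out by fluorescence scanning at intensities 7/7 (red/green); a secondary-only pre-stain checked background, HA frame peptides served as quality control.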

ApoC3 peptide … T44E = molecular target: T2, ApoC3 peptide … T44E (human, not fully specified (bridges); also: cyclic constrained)
T2 peptide: ARGWVEDGFSSLK
Method in brief: as §1

ApoC3 peptide … F47Y = molecular target: T3, ApoC3 peptide … F47Y (human, also: cyclic constrained)
T3 peptide: ARGWVTDGYSSLK
Method in brief: as §1

ApoC3 peptide … A39K = molecular target: T4, ApoC3 peptide … A39K (human, cyclic constrained)
T4 peptide: KRGWVTDGFSSLK
Method in brief: as §1

ApoC3 peptide … W42C = molecular target: T5, ApoC3 peptide … W42C (human, not fully specified (bridges); also: cyclic constrained)
T5 peptide: ARGCVTDGFSSLK
Method in brief: as §1

ApoC3 peptide … G41N = molecular target: T6, ApoC3 peptide … G41N (human, also: cyclic constrained)
T6 peptide: ARNWVTDGFSSLK
Method in brief: as §1

ApoC3 peptide … S48M = ApoC3 peptide … S48M (human, cyclic constrained)
Method in brief: as §1

ApoC3 peptide … F47D = molecular target: T7, ApoC3 peptide … F47D (human, not fully specified (bridges); also: cyclic constrained)
T7 peptide: ARGWVTDGDSSLK
Method in brief: as §1

ApoC3 peptide … K51I = molecular target: T8, ApoC3 peptide … K51I (human, not fully specified; cyclic constrained)
T8 peptide: ARGWVTDGFSSLI
Method in brief: as §1

ApoC3 peptide … F47A = molecular target: T9, ApoC3 peptide … F47A (human, not fully specified (bridges); also: cyclic constrained)
T9 peptide: ARGWVTDGASSLK
Method in brief: as §1

ApoC3 peptide … R40G = molecular target: T10, ApoC3 peptide … R40G (human, not fully specified (bridges); also: cyclic constrained)
T10 peptide: AGGWVTDGFSSLK
Method in brief: as §1

ApoC3 peptide … S49L = molecular target: T11, ApoC3 peptide … S49L (human, cyclic constrained)
T11 peptide: ARGWVTDGFSLLK
Method in brief: as §1

ApoC3 peptide … T44M = molecular target: T12, ApoC3 peptide … T44M (human, not fully specified (bridges); also: cyclic constrained)
T12 peptide: ARGWVMDGFSSLK
Method in brief: as §1

ApoC3 peptide … T44Y = molecular target: T13, ApoC3 peptide … T44Y (human, not fully specified (bridges); also: cyclic constrained)
T13 peptide: ARGWVYDGFSSLK
Method in brief: as §1

ApoC3 peptide … K51M = molecular target: T14, ApoC3 peptide … K51M (human, not fully specified; cyclic constrained)
T14 peptide: ARGWVTDGFSSLM
Method in brief: as §1

ApoC3 peptide … A39Q = molecular target: T15, ApoC3 peptide … A39Q (human, not fully specified (bridges); also: cyclic constrained)
T15 peptide: QRGWVTDGFSSLK
Method in brief: as §1

ApoC3 peptide … R40F = molecular target: T16, ApoC3 peptide … R40F (human, not fully specified (bridges); also: cyclic constrained)
T16 peptide: AFGWVTDGFSSLK
Method in brief: as §1

ApoC3 peptide … L50E = molecular target: T17, ApoC3 peptide … L50E (human, not fully specified; cyclic constrained)
T17 peptide: ARGWVTDGFSSEK
Method in brief: as §1

ApoC3 peptide … T44R = molecular target: T18, ApoC3 peptide … T44R (human, not fully specified (bridges); also: cyclic constrained)
T18 peptide: ARGWVRDGFSSLK
Method in brief: as §1

ApoC3 peptide … G41S = molecular target: T19, ApoC3 peptide … G41S (human, also: cyclic constrained)
T19 peptide: ARSWVTDGFSSLK
Method in brief: as §1

ApoC3 peptide … V43L = molecular target: T20, ApoC3 peptide … V43L (human, not fully specified; cyclic constrained)
T20 peptide: ARGWLTDGFSSLK
Method in brief: as §1

ApoC3 peptide … S49G = molecular target: T21, ApoC3 peptide … S49G (human, cyclic constrained)
T21 peptide: ARGWVTDGFSGLK
Method in brief: as §1

ApoC3 peptide … D45L = molecular target: T22, ApoC3 peptide … D45L (human, cyclic constrained)
T22 peptide: ARGWVTLGFSSLK
Method in brief: as §1

ApoC3 peptide … A39M = molecular target: T23, ApoC3 peptide … A39M (human, cyclic constrained)
T23 peptide: MRGWVTDGFSSLK
Method in brief: as §1

ApoC3 peptide … S49R = molecular target: T24, ApoC3 peptide … S49R (human, not fully specified (bridges); also: cyclic constrained)
T24 peptide: ARGWVTDGFSRLK
Method in brief: as §1

ApoC3 peptide … S48P = ApoC3 peptide … S48P (human, cyclic constrained)
Method in brief: as §1

ApoC3 peptide … F47L = molecular target: T25, ApoC3 peptide … F47L (human, not fully specified (bridges); also: cyclic constrained)
T25 peptide: ARGWVTDGLSSLK
Method in brief: as §1

ApoC3 peptide … S49V = molecular target: T26, ApoC3 peptide … S49V (human, not fully specified (bridges); also: cyclic constrained)
T26 peptide: ARGWVTDGFSVLK
Method in brief: as §1

ApoC3 peptide … L50D = molecular target: T27, ApoC3 peptide … L50D (human, not fully specified; cyclic constrained)
T27 peptide: ARGWVTDGFSSDK
Method in brief: as §1

ApoC3 peptide … D45G = molecular target: T28, ApoC3 peptide … D45G (human, not fully specified (bridges); also: cyclic constrained)
T28 peptide: ARGWVTGGFSSLK
Method in brief: as §1

ApoC3 peptide … A39W = molecular target: T29, ApoC3 peptide … A39W (human, not fully specified (bridges); also: cyclic constrained)
T29 peptide: WRGWVTDGFSSLK
Method in brief: as §1

B1: anti-ApoC3 antibody 14C7 (antibody, V domains shown)
VH: QVQVQESGPGLVKPSQTLSLTCTVSGGSITTNSYYWSWIRQPPGKGLEWMGAIDYSGDTYYSPSLKSRTSISRDTSKNQFTLQLTSVTPEDTAVYYCVSRIPTGEYWGQGTQVTVSS
VL: QTVVTQEPSLSVSPGGTVTLTCGLNSGSVTSSNYPDWYQQTPGQAPRLLIYNTNSRHSGVPSRFSGSISGNKAALTITGAQPEDEADYYCALYMGSDSVVFGGGTHLTVL
notes: it was detected with goat anti-human IgG (Fc); also called mAb 14C7; llama antibody 14C7
- % of binding to wild-type peptide (ApoC3 peptide … S48D): 71.6%
- % of binding to wild-type peptide (ApoC3 peptide … T44E): 0%
- % of binding to wild-type peptide (ApoC3 peptide … F47Y): 67.7%
- % of binding to wild-type peptide (ApoC3 peptide … A39K): 72.9%
- % of binding to wild-type peptide (ApoC3 peptide … W42C): 61.6%
- % of binding to wild-type peptide (ApoC3 peptide … G41N): 27.5%
- % of binding to wild-type peptide (ApoC3 peptide … S48M): 121%
- % of binding to wild-type peptide (ApoC3 peptide … F47D): 0%
- % of binding to wild-type peptide (ApoC3 peptide … K51I): 0.86%
- % of binding to wild-type peptide (ApoC3 peptide … F47A): 0%
- % of binding to wild-type peptide (ApoC3 peptide … R40G): 62.9%
- % of binding to wild-type peptide (ApoC3 peptide … S49L): 0%
- % of binding to wild-type peptide (ApoC3 peptide … T44M): 0%
- % of binding to wild-type peptide (ApoC3 peptide … T44Y): 0%
- % of binding to wild-type peptide (ApoC3 peptide … K51M): 11.1%
- % of binding to wild-type peptide (ApoC3 peptide … A39Q): 104%
- % of binding to wild-type peptide (ApoC3 peptide … R40F): 70.8%
- % of binding to wild-type peptide (ApoC3 peptide … L50E): 0%
- % of binding to wild-type peptide (ApoC3 peptide … T44R): 0%
- % of binding to wild-type peptide (ApoC3 peptide … G41S): 18.7%
- % of binding to wild-type peptide (ApoC3 peptide … V43L): 429%
- % of binding to wild-type peptide (ApoC3 peptide … S49G): 0%
- % of binding to wild-type peptide (ApoC3 peptide … D45L): 17.1%
- % of binding to wild-type peptide (ApoC3 peptide … A39M): 90.7%
- % of binding to wild-type peptide (ApoC3 peptide … S49R): 0.74%
- % of binding to wild-type peptide (ApoC3 peptide … S48P): 0.06%
- % of binding to wild-type peptide (ApoC3 peptide … F47L): 4.56%
- % of binding to wild-type peptide (ApoC3 peptide … S49V): 0.59%
- % of binding to wild-type peptide (ApoC3 peptide … L50D): 0%
- % of binding to wild-type peptide (ApoC3 peptide … D45G): 2.16%
- % of binding to wild-type peptide (ApoC3 peptide … A39W): 59.4%
